Patent US20050249734A1
Ends that are not written are not given here.

Key:
[1] = biological target: somatostatin receptors on GH4 pituitary cells; assay: displacement of 125I-somatostatin-14 from GH4 pituitary cells
[2] = biological target: somatostatin receptors on GH4 pituitary cells; assay: cell-based or functional assay

Kd [1] [nM] | inhibition of TRH-stimulated cAMP in GH4 cells [2] [nM] | inhibition of VIP-stimulated cAMP in GH4 cells [2] [% at 10^-6 M] | Molecule
5 | 10 | 50 | somatostatin-14 peptide (from UniProt P61278 103-116)
5 | 10 | 50 | PCKNFFWKTFSSCK-NH2 (cysteine pairing not given here) [cortistatin-14 peptide]
